Assay results: publication PMC5029526

Target: HdaB-dsA (donor strand complemented HdaB: HdaB residues 1-119, 14-residue linker, HdaA residues 1-10) (Escherichia coli (enteroaggregative, EAEC))
Assay: SEC; Superdex-75 gel filtration in 50 mM NaOAc pH 5.0, 200 mM NaCl, last step of purification after refolding; monomer (17.5 kDa) and dimer (35 kDa) peaks

HdaB-dsA (donor strand complemented HdaB: HdaB residues 1-119, 14-residue linker, HdaA residues 1-10)
stoichiometry N: 2
